US12454527B2, “Conjugate monomethyl auristatin E to obtain a composition for treatment of prostate cancer” (priority 2019, dated 2025)
Several values for one entry are separate records, joined by “and”; a condition that tells them apart may be missing. Identical values can stand only once. Entries after “also recorded” stand apart in the source; their conditions may differ. Like-named read-outs stand apart in the source and are kept apart here. Starred links: 1 amine or outer side, 2 acyl side, 3 side chain; linkers in the order of their positions; H or OH if unused. Non-standard residues stand in square brackets, D forms with d. Residues, ends and D or L forms follow the SMILES beside them. ξ: configuration not given here. *: point of attachment. GluureaLys(ε-3-ClBenzyl) = O=C(O)CC[C@H](NC(=O)N[C@@H](CCCCN(Cc1cccc(Cl)c1)*)C(=O)O)C(=O)O; Dolaproine = CO[C@@H]([C@@H]1CCCN1)[C@@H](C)C(=O)O; Dil = CC[C@H](C)[C@H](NC)[C@@H](CC(=O)O)OC; X1 = O=C(CCCc1cn(CCCN[*:1])nn1)[*:2]; PABC = O=C(OCc1ccc(N[*:1])cc1)[*:2]; X2 = C[C@@H](N*)[C@@H](O)c1ccccc1; Cit = NC(=O)NCCC[C@H](N)C(=O)O; Suc = O=C(CCC(=O)[*:2])[*:1]; NMeV = CN[C@H](C(=O)O)C(C)C; ξV = CC(C)C(N)C(=O)O; Ahx = NCCCCCC(=O)O

How the values were obtained:
[1] = Pharmacokinetics in plasma of rats after a single injection; format: in vivo; settings: for level at 8 h / level at 10 h / level at 12 h: male, white outbred, rat, plasma
Procedure: The pharmacokinetics study for the Conjugate (I) product in plasma of rabbits and rats after a single injection.
The leporids and rodents are the standard targets for preclinical studies of potential drug products as well as determining the pharmacokinetic parameters. The rabbits and rats are recommended as test systems to study pharmacokinetic properties of pharmaceutical products by the regulatory documents (FIG. 7, FIG. 8).
This study was performed on healthy awake white outbred mature male rats aged about 3 months with body weight of 190-210 g. […] The pharmacokinetic data, determined from this number of test animals, are sufficient to obtain the primary quantitative characteristics of test product distribution and elimination and the calculation of descriptive statistics parameters.
• 1. Conjugate (1) • 2. Solubilizer Pluronic F127—in the amount, five-fold greater than the conjugate amount by weight. • 3, Diluent—Haemodes infusion solution. • Dimethyl sulfoxide—in the amount of 5% of the prepared volume. • Rabbit experiment (see Tables 5, 6), • Rat experiment (see Tables 7, 8).

[2] = Acute toxicity study, single intravenous administration, mice; format: in vivo
From the text: Acute toxicity study of Conjugate (I) product on mice and rats.
• 1. Conjugate (I). • 2. Solubilizer Pluronic F127—in the amount, five-fold greater than the conjugate amount by weight. • 3. Diluent Haemodes infusion solution. • 4. Dimethyl sulfoxide—in the amount of 5% of the prepared volume.
The experiment took white outbred male mice aged about 2 months with body weight of 19-21,g, and also white outbred mature male rats aged about 2 months with body weight 190-210 g.
Acute toxicity study was performed within the intravenous administration. Before the start of the experiment to determine an acute toxicity, the animals were deprived of food and water (mice were deprived for 2 hours, rats—for 10-12 hours), and then weighed. Then each animal received the intravenous drug injection according to the study design, in a volume not exceeding the acceptable single injection volume: 0.5 mL for mice, 2 mL for rats, and fractionally if necessary. The control group of animals received Pluronic solution in Haemodes in the proportion used fort dose preparation of 78 mg/kg for mice and 38 mg/kg for rats. The duration of observation for laboratory animals was 14 days. During this period, visible signs of intoxication were assessed (see Table 9).

[3] = rats N=6, read-out: Concentration in blood plasma, Mean value
[4] = rats N=6, read-out: Concentration in blood plasma, Median
[5] = rats N=6, read-out: Concentration in blood plasma, Geometr. mean
[6] = rats, read-out: Concentration in blood plasma (individual animals)

In the case of `CC[C@H](C)[C@@H]([C@@H](CC(=O)N1CCC[C@H]1[C@H](OC)[C@@H](C)C(=O)N[C@H](C)[C@@H](O)c1ccccc1)OC)N(C)C(=O)[C@@H](NC(=O)[C@H](C(C)C)N(C)C(=O)OCc1ccc(NC(=O)[C@H](CCCNC(N)=O)NC(=O)C(NC(=O)CCCc2cn(CCCNC(=O)[C@H](Cc3ccc(O)cc3)NC(=O)[C@H](Cc3ccccc3)NC(=O)CCC(=O)NCCCCCC(=O)N(CCCC[C@H](NC(=O)N[C@@H](CCC(=O)O)C(=O)O)C(=O)O)Cc3cccc(Cl)c3)nn2)C(C)C)cc1)C(C)C` (stereo partly drawn) [Conjugate (I)] ({GluureaLys(ε-3-ClBenzyl)-Ahx-Suc}-FY[X1][ξV][Cit][PABC][NMeV]V[Dil][Dolaproine]-X2), the level at 8 h [1, 3] is reported as 3350 ng/mL, the level at 8 h [1, 4] is reported as 3190 ng/mL and the level at 10 h [1, 5] is reported as 2300 ng/mL. It also gave a level at 10 h [1, 3] of 2370 ng/mL, a level at 10 h [1, 4] of 2090 ng/mL and a level at 12 h [1, 5] of 1760 ng/mL. For the same compound, the level at 12 h [1, 3] was 1820 ng/mL, the level at 12 h [1, 4] was 1620 ng/mL and the level at 8 h [1, 6] was 2620 ng/mL. For the same compound, the level at 10 h [1, 6] was 2000 ng/mL, the “Concentration in blood plasma (individual animals)” value (shortened to “Concentration in blood plasma”) ([1]; rats, 1.50 hour) was 8007 ng/mL and the “Concentration in blood plasma” value ([1]; rats, 4.00 hour) was 5834 ng/mL and 5880 ng/mL. For the same compound, the “Concentration in blood plasma” value ([1]; rats, 6.00 hour) was 4247 ng/mL, the AUC0-t ([1]; rats, individual animals) was 60334 ng·h/mL and 45653 ng·h/mL and 95993 ng·h/mL and 110564 ng·h/mL and 83377 ng·h/mL and 57819 ng·h/mL and the “AUC0-∞” value ([1]; rats, individual animals) was 69475 ng·h/mL and 54945 ng·h/mL and 115670 ng·h/mL and 121598 ng·h/mL and 96420 ng·h/mL and 69132 ng·h/mL. The C0 ([1]; rats, individual animals) was 14307 ng/mL and 5351 ng/mL and 25202 ng/mL and 96531 ng/mL and 27501 ng/mL and 15195 ng/mL, the T1/2 ([1]; rats, individual animals) was 5.10 h and 5.00 h and 4.49 h and 4.13 h and 5.14 h and the Vd ([1]; rats, individual animals) was 0.12816 L/kg and 0.20101 L/kg and 0.09361 L/kg and 0.07983 L/kg and 0.09261 L/kg and 0.16076 L/kg. The “Body weight dynamics, M ± SD” value ([2]; male mice, 3 mg/kg, Day 5) was −13.2 ± 5.1 % of initial body weight, the “Body weight dynamics (individual animals)” value ([2]; male mice, 3 mg/kg, Day 5, listed as test drug, 3 mg/kg) was −6.3 % of initial body weight and −19.0 % of initial body weight and −15.4 % of initial body weight and −22.1 % of initial body weight and −11.0 % of initial body weight and −11.4 % of initial body weight and −13.3 % of initial body weight and −13.8 % of initial body weight and −5.6 % of initial body weight and −13.9 % of initial body weight and the “Body weight dynamics, M ± SD” value ([2]; male mice, 3 mg/kg, Day 10) was 9.9 ± 11.7 % of initial body weight. The “Body weight dynamics (individual animals)” value ([2]; male mice, 3 mg/kg, Day 10, listed as test drug, 3 mg/kg) was 0.0 % of initial body weight and 16.8 % of initial body weight and 18.8 % of initial body weight and −9.1 % of initial body weight and 18.6 % of initial body weight and 16.3 % of initial body weight and 13.8 % of initial body weight and 17.9 % of initial body weight and 18.9 % of initial body weight and −9.9 % of initial body weight, the “Body weight dynamics, M ± SD” value ([2]; male mice, 3 mg/kg, Day 14) was 29.1 ± 9.1 % of initial body weight and the “Body weight dynamics (individual animals)” value ([2]; male mice, 3 mg/kg, Day 14, listed as test drug, 3 mg/kg) was 36.1 % of initial body weight and 30.5 % of initial body weight and 32.7 % of initial body weight and 13.9 % of initial body weight and 34.3 % of initial body weight and 35.1 % of initial body weight and 25.7 % of initial body weight and 35.7 % of initial body weight and 35.2 % of initial body weight and 11.9 % of initial body weight. For the same compound, the “Body weight dynamics, M ± SD” value ([2]; male mice, 5 mg/kg, Day 5) was −20.9 ± 7.6 % of initial body weight, the “Body weight dynamics (individual animals)” value ([2]; male mice, 5 mg/kg, Day 5, listed as test drug, 5 mg/kg) was −27.1 % of initial body weight and −14.3 % of initial body weight and −28.2 % of initial body weight and −23.8 % of initial body weight and −26.1 % of initial body weight and −6.0 % of initial body weight and −22.4 % of initial body weight and −12.0 % of initial body weight and −21.0 % of initial body weight and −27.8 % of initial body weight and the “Body weight dynamics, M ± SD” value ([2]; male mice, 5 mg/kg, Day 10) was −4.3 ± 13.0 % of initial body weight. For the same compound, the “Body weight dynamics (individual animals)” value ([2]; male mice, 5 mg/kg, Day 10, listed as test drug, 5 mg/kg) was −6.7 % of initial body weight and −12.9 % of initial body weight and 1.0 % of initial body weight and −20.8 % of initial body weight and 13.9 % of initial body weight and −18.0 % of initial body weight and 16.8 % of initial body weight and −5.2 % of initial body weight and −6.8 % of initial body weight, the “Body weight dynamics, M ± SD” value ([2]; male mice, 5 mg/kg, Day 14) was 20.5 ± 10.5 % of initial body weight and the “Body weight effect (summary)” value ([2]; male mice, all test doses) was “decreased growth rate or decreased body weight regarding the initial one”. The Fatality ([2]; male mice, i.v. 3 mg/kg) was 0, the Fatality ([2]; male mice, i.v. 5 mg/kg) was 1 and the Fatality ([2]; male mice, i.v. 6 mg/kg) was 3. For the same compound, the Fatality ([2]; male mice, i.v. 7 mg/kg) was 10, the MTD at 14 days ([2]; male, white outbred, mouse, in vivo, iv, mice, single i.v., read-out: Maximum tolerated dose) was 3 mg/kg and the “Toxic effect (summary)” value ([2]; mice, acute i.v.) was “renal damage, decreased motor activity, dose-dependent hindlimb paresis”. The Signs of intoxication ([2]; mice, single i.v. 2 mg/kg) was “No signs of intoxication”, the Signs of intoxication ([2]; mice, single i.v. 3 mg/kg) was 3-4 days - general health deterioration, the occurring hindlimb paresis and the Signs of intoxication ([2]; mice, single i.v. 7 mg/kg) was 3-4 days - general health deterioration, the occurring hindlimb paresis, decrease movement activity. For the same compound, the Signs of intoxication ([2]; mice, single i.v. 8 mg/kg) was 5 days - all animals had disheveled fur, gastrointestinal bleeding, hindlimb paresis. One animal, the Signs of intoxication ([2]; mice, single i.v. 9 mg/kg, listed as test drug, 9 mg/kg) was “The animals demonstrated a shortness of breath right after administration, the next day - a shortness; also recorded: Days 3 (3), 4 (5), 5 (1), 6 (1)” and the Signs of intoxication ([2]; mice, single i.v. 30 mg/kg) was “All animals were observed with a shortness of breath right after administration, developing”. For the same compound, the Signs of intoxication ([2]; mice, single i.v. 45 mg/kg, listed as test drug, 45 mg/kg) was “All animals were observed with a shortness of breath right after administration, developing; also recorded: died during 12 hours”, the Signs of intoxication ([2]; mice, single i.v. 60 mg/kg) was “All animals were observed with a shortness of breath right after administration, developing” and the LD50 at 14 days ([2]; white outbred, mouse, in vivo, iv, male mice, single i.v., read-out: LD50 (median lethal dose)) was 6.3 mg/kg.
